In PMC6715699:

T1: UPF1 (UniProt Q92900 1-352+364-1129, internal_change)
T1 sequence: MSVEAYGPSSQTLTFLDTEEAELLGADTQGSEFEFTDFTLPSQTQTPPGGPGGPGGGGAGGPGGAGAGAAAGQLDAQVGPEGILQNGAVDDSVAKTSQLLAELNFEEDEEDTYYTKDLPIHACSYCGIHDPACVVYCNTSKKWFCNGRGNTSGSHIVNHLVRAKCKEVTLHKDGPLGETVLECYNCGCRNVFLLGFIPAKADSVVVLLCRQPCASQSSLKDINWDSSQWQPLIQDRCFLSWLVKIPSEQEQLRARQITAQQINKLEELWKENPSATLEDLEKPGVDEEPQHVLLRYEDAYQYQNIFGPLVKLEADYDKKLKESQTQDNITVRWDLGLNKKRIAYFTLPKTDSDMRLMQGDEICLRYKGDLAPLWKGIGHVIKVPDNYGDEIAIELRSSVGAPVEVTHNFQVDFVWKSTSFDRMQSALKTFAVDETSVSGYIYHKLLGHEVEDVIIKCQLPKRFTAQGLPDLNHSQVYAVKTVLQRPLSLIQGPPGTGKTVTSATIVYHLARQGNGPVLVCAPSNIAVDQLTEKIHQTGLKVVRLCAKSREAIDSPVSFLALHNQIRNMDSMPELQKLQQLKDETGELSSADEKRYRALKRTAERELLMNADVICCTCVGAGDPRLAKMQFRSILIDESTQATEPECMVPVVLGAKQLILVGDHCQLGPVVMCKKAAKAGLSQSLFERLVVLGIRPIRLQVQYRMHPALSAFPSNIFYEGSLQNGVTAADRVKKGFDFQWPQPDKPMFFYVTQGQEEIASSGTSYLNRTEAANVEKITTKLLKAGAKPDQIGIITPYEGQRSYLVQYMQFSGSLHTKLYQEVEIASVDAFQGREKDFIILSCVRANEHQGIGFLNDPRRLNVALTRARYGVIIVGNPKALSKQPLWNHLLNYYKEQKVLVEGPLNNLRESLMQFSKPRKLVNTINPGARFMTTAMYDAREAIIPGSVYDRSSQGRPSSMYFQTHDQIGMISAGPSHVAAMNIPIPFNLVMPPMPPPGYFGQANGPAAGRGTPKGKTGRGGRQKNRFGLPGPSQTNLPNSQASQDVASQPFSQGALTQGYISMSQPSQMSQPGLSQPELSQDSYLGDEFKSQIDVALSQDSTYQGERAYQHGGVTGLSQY

B1: CSL specific motif (dsDNA)
DNA 1: GTTACTGTGGGAAAGAAAG
DNA 2: CTTTCTTTCCCACAGTAAC
B2: TELO (TTAGGG)3 (dsDNA)
DNA 1: TTAGGGTTAGGGTTAGGG
DNA 2: CCCTAACCCTAACCCTAA
B3: SCRAMBLED (dsDNA)
DNA 1: GCTACTCATACCTAGAACG
DNA 2: CGTTCTAGGTATGAGTAGC

Legend:
[1] = molecular target: T2, CSL (RBP-Jkappa) (UniProt Q06330 1-500); assay: MST; 200 nM labelled CSL; MST in standard MST buffer (composition and pH not given), premium-treated capillaries, Monolith NT.115; 20 min at room temperature stated for the protein mixes; details: protein: commercial; tags: RED-NHS dye when labelled; blunt
T2 sequence (Q06330 whole entry): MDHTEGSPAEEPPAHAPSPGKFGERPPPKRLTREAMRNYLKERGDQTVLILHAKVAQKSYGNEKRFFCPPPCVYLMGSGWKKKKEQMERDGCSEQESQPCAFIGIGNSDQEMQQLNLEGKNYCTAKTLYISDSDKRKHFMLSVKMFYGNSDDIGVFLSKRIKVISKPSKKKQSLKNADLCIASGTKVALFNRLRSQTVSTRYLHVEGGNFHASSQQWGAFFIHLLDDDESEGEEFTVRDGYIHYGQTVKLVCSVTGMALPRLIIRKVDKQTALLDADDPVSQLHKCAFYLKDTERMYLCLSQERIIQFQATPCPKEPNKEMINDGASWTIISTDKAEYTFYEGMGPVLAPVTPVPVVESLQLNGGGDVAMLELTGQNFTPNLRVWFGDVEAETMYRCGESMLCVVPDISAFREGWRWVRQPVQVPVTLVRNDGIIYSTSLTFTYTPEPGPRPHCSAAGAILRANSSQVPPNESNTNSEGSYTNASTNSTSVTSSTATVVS

[2] = molecular target: T2, CSL (RBP-Jkappa); assay: MST; 50 nM labelled DNA; MST in standard MST buffer (composition and pH not given), premium-treated capillaries, Monolith NT.115; 20 min at room temperature stated for the protein mixes; details: protein: commercial; tags: RED-NHS dye when labelled; label: 647-NHS; blunt
[3] = molecular target: T1, UPF1; assay: MST; 50 nM labelled DNA; no binding specificity; MST in standard MST buffer (composition and pH not given), premium-treated capillaries, Monolith NT.115; 20 min at room temperature stated for the protein mixes; details: protein: commercial; label: 647-NHS; blunt
[4] = molecular target: T2, CSL (RBP-Jkappa); assay: MST; second independent experiment; 50 nM labelled DNA; MST in standard MST buffer (composition and pH not given), premium-treated capillaries, Monolith NT.115; 20 min at room temperature stated for the protein mixes; details: protein: commercial; tags: RED-NHS dye when labelled; label: 647-NHS; blunt

Binder	Kd [1] [nM]	Kd [2] [nM]	Kd [3] [nM]	Kd [4] [nM]
B1	121 ± 17.4	–	–	–
B2	–	235 ± 23.9	3520 ± 46.8	232 ± 15.4
B3	3380 ± 77.6	–	–	–
